# Experimental data as given in EP1980246A1.
# Tests used:
# [1] = molecular target: recombinant human TGF-β1 (human) (UniProt P01137); experiment: active TGF-β ELISA, R2X capture, TGF-β titrated in TBS, BDA47 detection; ΔA50%
# [2] = molecular target: purified porcine TGF-β1 (Peninsula) (porcine) (UniProt P07200); experiment: as above
# Chain of purified porcine TGF-β1 (Peninsula) (porcine) (P07200 279-390 limits assumed): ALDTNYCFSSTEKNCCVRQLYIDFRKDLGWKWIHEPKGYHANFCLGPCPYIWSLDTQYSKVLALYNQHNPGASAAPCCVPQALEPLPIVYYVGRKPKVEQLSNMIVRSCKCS
# Chain of recombinant human TGF-β1 (human) (P01137 279-390 limits assumed): as the sequence (P07200 279-390 limits assumed) above
substance,measurement,setting,value
truncated extracellular domain of the type II TGF-beta receptor fused to glutathione-S-transferase (R2X) (from UniProt P08515 1-218; P37173 23-166),EC50,[1],0.72 nM
same,EC50,[2],0.68 nM
